Experimental data as given in patent US7220822 (OHIO STATE UNIVERSITY, dated 2007).

Target: T1, CD80-Ig (extracellular domain of CD80 fused with the constant region of mouse IgG1 heavy chain) (mouse)
T1 construct: extracellular domain; also called B7-1
Experiment: SPR (BIACORE), direct binding to immobilized CD80-Ig, linear regression plot
Method: Binding experiments were performed by surface plasmon resonance (SPR) on an instrument sold under the trademark BIACORE™ from Pharmacia Biosensor (Uppasala, Sweden). All experiments were performed at 37° C. using HBS-EP buffer (25 mM Hepes, pH7.4, […], 3.4 mM EDTA and, 005% surfactant P20) supplied by Pharmacia Biosensor.
CD80-Ig (extracellular domain of CD80 fused with the constant region of mouse IgG1 heavy chain) at 35 µg/ml in 10 mM sodium acetate buffer, pH 4.2, was coupled to a research grade CM 5 sensor chip using a standard amine coupling procedure with the following modifications (38). To reduce the immobilization level of the ligand, the surface was activated for 3 (instead of 7) minutes with N-hydroxysuccinamide and […]. […] Following coupling, noncovalently bound ligand was removed by washing twice with 5 mM NaOH.
Data for both k_a and k_d are quite consistent over the entire range of concentrations used. The difference between experimental and calculated data for both EL CD28 and RI CD28 peptide mimetics estimated by Chi^2 value is low being close to the noise level of the instrument. A linear regression plot of the rate of change in the response against response units was plotted using these values of k_a and k_d for each CD28 peptide analyte.

- Kd: 2440 nM
Binder: H-KIEFMYPPPYLDNERSNGTI-OH (also called Free L peptide) [L-CD28 (free L CD28 peptide mimetic)]
